# ± gives the uncertainty stated by the source.
# B1: Mineralocorticoid receptor, residues 600 to 675; numbered along this chain, P08235 (parent)
# chain: SKICLVCGDEASGCHYGVVTCGSCKVFFKRAVEGQHNYLCAGRNDCIIDKIRRKNCPACRLQKCLQAGMNLGARKS
# Variants of: B1
# Assay: abundance fitness (aPCA) (normalised: wild type 0, dead -1); higher = more abundant; growth selection in yeast, the domain comes from the species named
# Settings: Homo sapiens
row,Variant,abundance fitness
1,SKICLVCGDEASGCHYGVVTCGSCKVFFKRAVEGQHNYLCAGRNDCIIDKIKRKNCPACRLQKCLQAGMNLGARKS,-0.056 ± 0.075
2,SKICLVCGDEASGCHYGVVTCGSCKVFFKRAVEGQHNYLCAGRNDCIIDKIVRKNCPACRLQKCLQAGMNLGARKS,-0.114 ± 0.057
3,SKICLVCGDEASGCHYGVVTCGSCKVFFKRAVEGQHNYLCAGRNDCIIDKILRKNCPACRLQKCLQAGMNLGARKS,-0.149 ± 0.062
4,SKICLVCGDEASGCHYGVVTCGSCKVFFKRAVEGQHNYLCAGRNDCIIDKIWRKNCPACRLQKCLQAGMNLGARKS,-0.052 ± 0.057
5,SKICLVCGDEASGCHYGVVTCGSCKVFFKRAVEGQHNYLCAGRNDCIIDKIFRKNCPACRLQKCLQAGMNLGARKS,-0.14 ± 0.097
6,SKICLVCGDEASGCHYGVVTCGSCKVFFKRAVEGQHNYLCAGRNDCIIDKIARKNCPACRLQKCLQAGMNLGARKS,-0.034 ± 0.043
7,SKICLVCGDEASGCHYGVVTCGSCKVFFKRAVEGQHNYLCAGRNDCIIDKICRKNCPACRLQKCLQAGMNLGARKS,-0.043 ± 0.065
8,SKICLVCGDEASGCHYGVVTCGSCKVFFKRAVEGQHNYLCAGRNDCIIDKIQRKNCPACRLQKCLQAGMNLGARKS,0.027 ± 0.059
9,SKICLVCGDEASGCHYGVVTCGSCKVFFKRAVEGQHNYLCAGRNDCIIDKIMRKNCPACRLQKCLQAGMNLGARKS,-0.131 ± 0.1
10,SKICLVCGDEASGCHYGVVTCGSCKVFFKRAVEGQHNYLCAGRNDCIIDKIDRKNCPACRLQKCLQAGMNLGARKS,-0.072 ± 0.092
11,SKICLVCGDEASGCHYGVVTCGSCKVFFKRAVEGQHNYLCAGRNDCIIDKIIRKNCPACRLQKCLQAGMNLGARKS,0.049 ± 0.069
12,SKICLVCGDEASGCHYGVVTCGSCKVFFKRAVEGQHNYLCAGRNDCIIDKIYRKNCPACRLQKCLQAGMNLGARKS,-0.234 ± 0.11
13,SKICLVCGDEASGCHYGVVTCGSCKVFFKRAVEGQHNYLCAGRNDCIIDKISRKNCPACRLQKCLQAGMNLGARKS,-0.04 ± 0.043
14,SKICLVCGDEASGCHYGVVTCGSCKVFFKRAVEGQHNYLCAGRNDCIIDKITRKNCPACRLQKCLQAGMNLGARKS,-0.04 ± 0.054
15,SKICLVCGDEASGCHYGVVTCGSCKVFFKRAVEGQHNYLCAGRNDCIIDKIGRKNCPACRLQKCLQAGMNLGARKS,-0.027 ± 0.039
16,SKICLVCGDEASGCHYGVVTCGSCKVFFKRAVEGQHNYLCAGRNDCIIDKIHRKNCPACRLQKCLQAGMNLGARKS,-0.055 ± 0.11
17,SKICLVCGDEASGCHYGVVTCGSCKVFFKRAVEGQHNYLCAGRNDCIIDKIPRKNCPACRLQKCLQAGMNLGARKS,-0.081 ± 0.06
18,SKICLVCGDEASGCHYGVVTCGSCKVFFKRAVEGQHNYLCAGRNDCIIDKSRRKNCPACRLQKCLQAGMNLGARKS,0.003 ± 0.042
19,SKICLVCGDEASGCHYGVVTCGSCKVFFKRAVEGQHNYLCAGRNDCIIDKERRKNCPACRLQKCLQAGMNLGARKS,-0.048 ± 0.057
20,SKICLVCGDEASGCHYGVVTCGSCKVFFKRAVEGQHNYLCAGRNDCIIDKPRRKNCPACRLQKCLQAGMNLGARKS,-0.137 ± 0.066
21,SKICLVCGDEASGCHYGVVTCGSCKVFFKRAVEGQHNYLCAGRNDCIIDKVRRKNCPACRLQKCLQAGMNLGARKS,0.085 ± 0.055
22,SKICLVCGDEASGCHYGVVTCGSCKVFFKRAVEGQHNYLCAGRNDCIIDKWRRKNCPACRLQKCLQAGMNLGARKS,-0.164 ± 0.066
23,SKICLVCGDEASGCHYGVVTCGSCKVFFKRAVEGQHNYLCAGRNDCIIDKARRKNCPACRLQKCLQAGMNLGARKS,-0.018 ± 0.048
24,SKICLVCGDEASGCHYGVVTCGSCKVFFKRAVEGQHNYLCAGRNDCIIDKGRRKNCPACRLQKCLQAGMNLGARKS,-0.016 ± 0.043

row,Variant,abundance fitness
1,SKICLVCGDEASGCHYGVVTCGSCKVFFKRAVEGQHNYLCAGRNDCIIDKCRRKNCPACRLQKCLQAGMNLGARKS,-0.051 ± 0.073
2,SKICLVCGDEASGCHYGVVTCGSCKVFFKRAVEGQHNYLCAGRNDCIIDKNRRKNCPACRLQKCLQAGMNLGARKS,-0.108 ± 0.068
3,SKICLVCGDEASGCHYGVVTCGSCKVFFKRAVEGQHNYLCAGRNDCIIDKRRRKNCPACRLQKCLQAGMNLGARKS,-0.018 ± 0.042
4,SKICLVCGDEASGCHYGVVTCGSCKVFFKRAVEGQHNYLCAGRNDCIIDKDRRKNCPACRLQKCLQAGMNLGARKS,-0.083 ± 0.1
5,SKICLVCGDEASGCHYGVVTCGSCKVFFKRAVEGQHNYLCAGRNDCIIDKYRRKNCPACRLQKCLQAGMNLGARKS,0.048 ± 0.088
6,SKICLVCGDEASGCHYGVVTCGSCKVFFKRAVEGQHNYLCAGRNDCIIDKHRRKNCPACRLQKCLQAGMNLGARKS,0.062 ± 0.092
7,SKICLVCGDEASGCHYGVVTCGSCKVFFKRAVEGQHNYLCAGRNDCIIDKLRRKNCPACRLQKCLQAGMNLGARKS,0.018 ± 0.056
8,SKICLVCGDEASGCHYGVVTCGSCKVFFKRAVEGQHNYLCAGRNDCIIDKMRRKNCPACRLQKCLQAGMNLGARKS,0.024 ± 0.11
9,SKICLVCGDEASGCHYGVVTCGSCKVFFKRAVEGQHNYLCAGRNDCIIDKKRRKNCPACRLQKCLQAGMNLGARKS,-0.093 ± 0.051
10,SKICLVCGDEASGCHYGVVTCGSCKVFFKRAVEGQHNYLCAGRNDCIIDKQRRKNCPACRLQKCLQAGMNLGARKS,0.095 ± 0.076
11,SKICLVCGDEASGCHYGVVTCGSCKVFFKRAVEGQHNYLCAGRNDCIIDKFRRKNCPACRLQKCLQAGMNLGARKS,-0.076 ± 0.077
12,SKICLVCGDEASGCHYGVVTCGSCKVFFKRAVEGQHNYLCAGRNDCIIDKIRNKNCPACRLQKCLQAGMNLGARKS,-0.075 ± 0.29
13,SKICLVCGDEASGCHYGVVTCGSCKVFFKRAVEGQHNYLCAGRNDCIIDKIRVKNCPACRLQKCLQAGMNLGARKS,0.025 ± 0.073
14,SKICLVCGDEASGCHYGVVTCGSCKVFFKRAVEGQHNYLCAGRNDCIIDKIRDKNCPACRLQKCLQAGMNLGARKS,-0.024 ± 0.35
15,SKICLVCGDEASGCHYGVVTCGSCKVFFKRAVEGQHNYLCAGRNDCIIDKIRIKNCPACRLQKCLQAGMNLGARKS,-0.098 ± 0.14
16,SKICLVCGDEASGCHYGVVTCGSCKVFFKRAVEGQHNYLCAGRNDCIIDKIRCKNCPACRLQKCLQAGMNLGARKS,-0.159 ± 0.15
17,SKICLVCGDEASGCHYGVVTCGSCKVFFKRAVEGQHNYLCAGRNDCIIDKIREKNCPACRLQKCLQAGMNLGARKS,0.087 ± 0.056
18,SKICLVCGDEASGCHYGVVTCGSCKVFFKRAVEGQHNYLCAGRNDCIIDKIRWKNCPACRLQKCLQAGMNLGARKS,-0.035 ± 0.053
19,SKICLVCGDEASGCHYGVVTCGSCKVFFKRAVEGQHNYLCAGRNDCIIDKIRLKNCPACRLQKCLQAGMNLGARKS,-0.098 ± 0.076
20,SKICLVCGDEASGCHYGVVTCGSCKVFFKRAVEGQHNYLCAGRNDCIIDKIRKKNCPACRLQKCLQAGMNLGARKS,-0.078 ± 0.07
21,SKICLVCGDEASGCHYGVVTCGSCKVFFKRAVEGQHNYLCAGRNDCIIDKIRQKNCPACRLQKCLQAGMNLGARKS,-0.058 ± 0.068
22,SKICLVCGDEASGCHYGVVTCGSCKVFFKRAVEGQHNYLCAGRNDCIIDKIRMKNCPACRLQKCLQAGMNLGARKS,-0.167 ± 0.09
23,SKICLVCGDEASGCHYGVVTCGSCKVFFKRAVEGQHNYLCAGRNDCIIDKIRFKNCPACRLQKCLQAGMNLGARKS,-0.056 ± 0.19
24,SKICLVCGDEASGCHYGVVTCGSCKVFFKRAVEGQHNYLCAGRNDCIIDKIRYKNCPACRLQKCLQAGMNLGARKS,-0.261 ± 0.28

row,Variant,abundance fitness
1,SKICLVCGDEASGCHYGVVTCGSCKVFFKRAVEGQHNYLCAGRNDCIIDKIRPKNCPACRLQKCLQAGMNLGARKS,-0.056 ± 0.058
2,SKICLVCGDEASGCHYGVVTCGSCKVFFKRAVEGQHNYLCAGRNDCIIDKIRSKNCPACRLQKCLQAGMNLGARKS,-0.095 ± 0.057
3,SKICLVCGDEASGCHYGVVTCGSCKVFFKRAVEGQHNYLCAGRNDCIIDKIRGKNCPACRLQKCLQAGMNLGARKS,-0.045 ± 0.043
4,SKICLVCGDEASGCHYGVVTCGSCKVFFKRAVEGQHNYLCAGRNDCIIDKIRTKNCPACRLQKCLQAGMNLGARKS,-0.042 ± 0.07
5,SKICLVCGDEASGCHYGVVTCGSCKVFFKRAVEGQHNYLCAGRNDCIIWKIRRKNCPACRLQKCLQAGMNLGARKS,-0.258 ± 0.038
6,SKICLVCGDEASGCHYGVVTCGSCKVFFKRAVEGQHNYLCAGRNDCIIYKIRRKNCPACRLQKCLQAGMNLGARKS,-0.211 ± 0.048
7,SKICLVCGDEASGCHYGVVTCGSCKVFFKRAVEGQHNYLCAGRNDCIIVKIRRKNCPACRLQKCLQAGMNLGARKS,-0.219 ± 0.039
8,SKICLVCGDEASGCHYGVVTCGSCKVFFKRAVEGQHNYLCAGRNDCIIDKIRRGNCPACRLQKCLQAGMNLGARKS,-0.059 ± 0.05
9,SKICLVCGDEASGCHYGVVTCGSCKVFFKRAVEGQHNYLCAGRNDCIIDKIRRWNCPACRLQKCLQAGMNLGARKS,-0.194 ± 0.074
10,SKICLVCGDEASGCHYGVVTCGSCKVFFKRAVEGQHNYLCAGRNDCIIDKIRRDNCPACRLQKCLQAGMNLGARKS,-0.031 ± 0.056
11,SKICLVCGDEASGCHYGVVTCGSCKVFFKRAVEGQHNYLCAGRNDCIIDKIRRFNCPACRLQKCLQAGMNLGARKS,0 ± 0.05
12,SKICLVCGDEASGCHYGVVTCGSCKVFFKRAVEGQHNYLCAGRNDCIIDKIRRLNCPACRLQKCLQAGMNLGARKS,-0.106 ± 0.046
13,SKICLVCGDEASGCHYGVVTCGSCKVFFKRAVEGQHNYLCAGRNDCIIDKIRRVNCPACRLQKCLQAGMNLGARKS,-0.065 ± 0.046
14,SKICLVCGDEASGCHYGVVTCGSCKVFFKRAVEGQHNYLCAGRNDCIIDKIRRPNCPACRLQKCLQAGMNLGARKS,-0.072 ± 0.046
15,SKICLVCGDEASGCHYGVVTCGSCKVFFKRAVEGQHNYLCAGRNDCIIDKIRRENCPACRLQKCLQAGMNLGARKS,-0.046 ± 0.092
16,SKICLVCGDEASGCHYGVVTCGSCKVFFKRAVEGQHNYLCAGRNDCIIDKIRRNNCPACRLQKCLQAGMNLGARKS,0.013 ± 0.046
17,SKICLVCGDEASGCHYGVVTCGSCKVFFKRAVEGQHNYLCAGRNDCIIDKIRRANCPACRLQKCLQAGMNLGARKS,-0.039 ± 0.049
18,SKICLVCGDEASGCHYGVVTCGSCKVFFKRAVEGQHNYLCAGRNDCIIDKIRRTNCPACRLQKCLQAGMNLGARKS,0.038 ± 0.039
19,SKICLVCGDEASGCHYGVVTCGSCKVFFKRAVEGQHNYLCAGRNDCIIDKIRRINCPACRLQKCLQAGMNLGARKS,-0.018 ± 0.04
20,SKICLVCGDEASGCHYGVVTCGSCKVFFKRAVEGQHNYLCAGRNDCIIDKIRRQNCPACRLQKCLQAGMNLGARKS,-0.071 ± 0.064
21,SKICLVCGDEASGCHYGVVTCGSCKVFFKRAVEGQHNYLCAGRNDCIIDKIRRSNCPACRLQKCLQAGMNLGARKS,0.013 ± 0.035
22,SKICLVCGDEASGCHYGVVTCGSCKVFFKRAVEGQHNYLCAGRNDCIIDKIRRYNCPACRLQKCLQAGMNLGARKS,-0.032 ± 0.048
23,SKICLVCGDEASGCHYGVVTCGSCKVFFKRAVEGQHNYLCAGRNDCIIDKIRRRNCPACRLQKCLQAGMNLGARKS,-0.083 ± 0.044
24,SKICLVCGDEASGCHYGVVTCGSCKVFFKRAVEGQHNYLCAGRNDCIIDKIRRHNCPACRLQKCLQAGMNLGARKS,-0.118 ± 0.044
